What was measured:
[1] = molecular target: Escherichia coli enolase (E. coli) (UniProt P0A6P9); assay: crystal structure; enolase and microdomain mixed in a 1:1.5 molar ratio on ice for 20 min; sitting drop, 0.1 M HEPES pH 7.0, 1.6 M ammonium sulfate, 293 K; 1.9 A
[2] = molecular target: Escherichia coli enolase (E. coli) (UniProt P0A6P9); assay: native MS; enolase mixed with the microdomain in a 1:1.5 molar ratio, room temperature, 20 min; nanoflow ESI, tandem nondissociating QTOF-MS/MS

Escherichia coli enolase (E. coli), sequence (P0A6P9 whole entry): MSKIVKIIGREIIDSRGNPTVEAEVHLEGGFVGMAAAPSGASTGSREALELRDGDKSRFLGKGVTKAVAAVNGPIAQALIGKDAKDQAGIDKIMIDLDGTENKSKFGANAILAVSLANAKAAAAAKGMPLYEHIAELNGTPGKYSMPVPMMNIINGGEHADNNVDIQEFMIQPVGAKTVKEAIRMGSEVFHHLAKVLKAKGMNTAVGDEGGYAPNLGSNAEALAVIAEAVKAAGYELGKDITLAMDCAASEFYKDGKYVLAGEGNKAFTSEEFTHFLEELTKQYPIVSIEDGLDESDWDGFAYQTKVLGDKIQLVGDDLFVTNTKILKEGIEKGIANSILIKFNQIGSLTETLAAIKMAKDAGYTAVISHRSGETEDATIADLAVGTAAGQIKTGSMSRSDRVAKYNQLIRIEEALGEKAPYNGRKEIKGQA

stoichiometry N (RNase E microdomain per enolase dimer) [1]: 1
Substance: RNase E recognition microdomain (residues 823-850) (peptide)
stoichiometry N (RNase E microdomain per enolase dimer) [2]: 1
